Measured values from patent US20060018902A1 (published 2006).
Residue numbers refer to the chain shown, from its start.

B1: Ab12.118 (antibody, IgG2, V domains shown)
VH: QVQLQESGPGLVKPSETLSLTCTVSGASISSYYWSWIRQPPGKGLEWIGYIGYSGSTNYNPSLKSRVTISVDTSKNQFSLKLRSVTAADTAVYYCARERLGIGDYWGQGTLVTVSS
VL: DIQLTQSPSSLSASVGDRVTITCRASQGIRNDLGWYQQKPGKAPKRLIYAASSLQSGVPSRFSGSGSGTEFTLTISSLQPEDFATYYCLQHNTYPPTFGQGTKVEIK
B2: Ab12.122 (antibody, IgG2, V domains shown)
VH: B1 VH with G52Y, Y53G, S54E
VL: B1 VL
B3: Ab12.119 (antibody, IgG2, V domains shown)
VH: B1 VH with G52Y, Y53G
VL: B1 VL
B4: Ab12.123 (antibody, IgG2, V domains shown)
VH: B1 VH with S54E
VL: B1 VL
B5: Ab12.120 (antibody, IgG2, V domains shown)
VH: B1 VH with G52Y, S54E
VL: B1 VL
B6: Ab12.121 (antibody, IgG2, V domains shown)
VH: B1 VH with Y53G
VL: B1 VL
B7: Ab12 IgG2/K (antibody, V domains shown)
VH: B1 VH with G52Y
VL: B1 VL
notes: Human IgG2/kappa
B8: Ab12.56 (antibody, V domains shown)
VH: B1 VH with G52A, Y53G, S54T
VL: B1 VL
notes: CDRH2 Y Y S is changed to A G T against Ab12
B9: Ab12.6 (antibody, V domains shown)
VH: B1 VH with Y53G, S54E
VL: B1 VL
notes: CDRH2 Y Y S is changed to G G E against Ab12; also called H2-1-3 R2 #6
B10: Ab12.70 (antibody, V domains shown)
VH: B1 VH with G52Y, Y53S, S54P, G55S
VL: B1 VL
notes: also called H2-4-1 R2 #8,9
B11: Ab12 scFv construct with Gly/Ser linker (WT) in both the tether and scFv linker positions, displayed on yeast (scFv)
scFv: GGGGSGGGGSGGGGSQVQLQESGPGLVKPSETLSLTCTVSGASISSYYWSWIRQPPGKGLEWIGYIYYSGSTNYNPSLKSRVTISVDTSKNQFSLKLRSVTAADTAVYYCARERLGIGDYWGQGTLVTVSSGGGGSGGGGSGGGGSDIQLTQSPSSLSASVGDRVTITCRASQGIRNDLGWYQQKPGKAPKRLIYAASSLQSGVPSRFSGSGSGTEFTLTISSLQPEDFATYYCLQHNTYPPTFGQGTKVEIK
B12: Ab12 scFv construct with linker 41 in the tether position and linker 34 in the scFv linker position, displayed on yeast (scFv)
scFv: GENKVEYAPALMALSQVQLQESGPGLVKPSETLSLTCTVSGASISSYYWSWIRQPPGKGLEWIGYIYYSGSTNYNPSLKSRVTISVDTSKNQFSLKLRSVTAADTAVYYCARERLGIGDYWGQGTLVTVSSGHEAAAVMQVQYPASDIQLTQSPSSLSASVGDRVTITCRASQGIRNDLGWYQQKPGKAPKRLIYAASSLQSGVPSRFSGSGSGTEFTLTISSLQPEDFATYYCLQHNTYPPTFGQGTKVEIK
B13: Ab12 scFv construct with linker 41 in the tether position and the Gly/Ser linker (WT) in the scFv linker position, displayed on yeast (scFv)
scFv: GENKVEYAPALMALSQVQLQESGPGLVKPSETLSLTCTVSGASISSYYWSWIRQPPGKGLEWIGYIYYSGSTNYNPSLKSRVTISVDTSKNQFSLKLRSVTAADTAVYYCARERLGIGDYWGQGTLVTVSSGGGGSGGGGSGGGGSDIQLTQSPSSLSASVGDRVTITCRASQGIRNDLGWYQQKPGKAPKRLIYAASSLQSGVPSRFSGSGSGTEFTLTISSLQPEDFATYYCLQHNTYPPTFGQGTKVEIK
B14: Ab12 41/40 scFv (linker 41 as tether, linker 40 as scFv linker), displayed on yeast (scFv)
scFv: GENKVEYAPALMALSQVQLQESGPGLVKPSETLSLTCTVSGASISSYYWSWIRQPPGKGLEWIGYIYYSGSTNYNPSLKSRVTISVDTSKNQFSLKLRSVTAADTAVYYCARERLGIGDYWGQGTLVTVSSGPAKELTPLKEAKVSDIQLTQSPSSLSASVGDRVTITCRASQGIRNDLGWYQQKPGKAPKRLIYAASSLQSGVPSRFSGSGSGTEFTLTISSLQPEDFATYYCLQHNTYPPTFGQGTKVEIK

Each binder was assayed against T1, soluble EpoR (EposR) (human, UniProt P19235 25-250, limits assumed) (assay: SPR (BIAcore), IgG2/K sub-variant of Ab12.6, EposR as test antigen).
T1 construct: also called soluble recombinant human EpoR
T1 sequence (looked up): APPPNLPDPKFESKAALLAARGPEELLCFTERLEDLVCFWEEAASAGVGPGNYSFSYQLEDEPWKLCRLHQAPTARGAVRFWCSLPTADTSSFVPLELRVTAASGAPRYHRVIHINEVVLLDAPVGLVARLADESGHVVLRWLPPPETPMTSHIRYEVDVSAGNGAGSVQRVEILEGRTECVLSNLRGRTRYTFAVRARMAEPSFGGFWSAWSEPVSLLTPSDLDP
Protocol: (§1) BIAcore analyses were performed on a BIAcore 2000 utilizing the BIAcontrol software version 3.1.0 and on a BIAcore 3000 utilizing the BIAcontrol software version 4.0.1. (BIAcore, Uppsala, Sweden) using EposR as the test antigen.
Sub-variants also were subjected to BIAcore analyses as described above.

| Binder | Kd [nM] | koff [s⁻¹] | kon [M⁻¹ s⁻¹] |
| --- | --- | --- | --- |
| B1 | 22 | 0.0055 | 250000 |
| B2 | 23 | 0.0049 | 220000 |
| B3 | 21 | 0.0044 | 210000 |
| B4 | 25 | 0.0033 | 130000 |
| B5 | 7 | 0.002 | 270000 |
| B6 | 31 | 0.0063 | 210000 |

These binders were tested against T1, soluble EpoR (EposR) (assay: SPR (BIAcore), IgG2/K antibody, EposR as test antigen).
Protocol: as §1

| Binder | Kd [nM] | koff [s⁻¹] | kon [M⁻¹ s⁻¹] |
| --- | --- | --- | --- |
| B7 | 11 | 0.0013 | 140000 |
| B8 | 20 | 0.0019 | 94000 |
| B9 | 32 | 0.0048 | 150000 |
| B10 | 6 | 0.00099 | 160000 |

Each binder was assayed against T2, human erythropoietin receptor (EpoR) on human erythroleukemic cells (human, UniProt P19235 25-508) (assay: cell-based or functional assay).
T2 sequence (looked up): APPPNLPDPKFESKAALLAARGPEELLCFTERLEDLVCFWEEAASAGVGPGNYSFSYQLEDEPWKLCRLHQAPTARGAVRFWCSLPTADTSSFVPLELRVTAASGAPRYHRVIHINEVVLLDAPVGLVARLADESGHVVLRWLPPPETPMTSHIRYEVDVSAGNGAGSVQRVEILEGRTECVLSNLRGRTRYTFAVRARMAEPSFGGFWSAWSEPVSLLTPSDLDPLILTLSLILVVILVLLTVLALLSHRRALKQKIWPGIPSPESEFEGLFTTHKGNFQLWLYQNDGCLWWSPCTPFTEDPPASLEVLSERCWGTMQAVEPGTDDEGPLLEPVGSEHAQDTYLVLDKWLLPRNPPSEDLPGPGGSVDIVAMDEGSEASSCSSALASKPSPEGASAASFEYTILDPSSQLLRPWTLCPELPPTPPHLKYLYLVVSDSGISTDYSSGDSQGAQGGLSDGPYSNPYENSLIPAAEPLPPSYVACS

| Binder | EC50 (cell proliferation) [nM] | Emax (cell proliferation, absorbance) |
| --- | --- | --- |
| B7 | 1.29 | 1.98 absorbance (OD 490 nm) |
| B1 | 1.13 | 2.65 absorbance (OD 490 nm) |
| B2 | 0.42 | 2.4 absorbance (OD 490 nm) |
| B8 | 1.17 | 2.51 absorbance (OD 490 nm) |
| B9 | 0.58 | 2.81 absorbance (OD 490 nm) |
| B3 | 1.34 | 2.53 absorbance (OD 490 nm) |
| B4 | 0.91 | 2.7 absorbance (OD 490 nm) |
| B5 | 0.34 | 2 absorbance (OD 490 nm) |
| B6 | 0.465 | 2.3 absorbance (OD 490 nm) |

Biological target: T3, soluble EpoR (EposR) (human, UniProt P19235 25-250)
T3 chain: T1 sequence (looked up)
Test: yeast display flow cytometry

| Binder | Kd [nM] |
| --- | --- |
| B11 | 9 |
| B12 | 8.5 |
| B13 | 5 |
| B14 | 4 |
